Measurements taken from paper PMC5814841.
Positions count from the first letter of the chain named.

T1: hpTEN (Hansenula polymorpha (Ogataea …, UniProt R4IT35 1-159))
T1 sequence: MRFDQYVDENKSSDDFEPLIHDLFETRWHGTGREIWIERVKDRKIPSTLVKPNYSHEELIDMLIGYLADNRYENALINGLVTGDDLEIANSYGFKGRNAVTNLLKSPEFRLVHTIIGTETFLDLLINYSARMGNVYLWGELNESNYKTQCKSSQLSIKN

T2: hpTEN N53A/S55A/R110A/E119A (Hansenula polymorpha (Ogataea …, UniProt R4IT35 1-159, N53A;S55A;R110A;E119A))
T2 sequence: T1 sequence with N53A, S55A, R110A, E119A

T3: hpTEN N53A/S55A/R110A (Hansenula polymorpha (Ogataea …, UniProt R4IT35 1-159, N53A;S55A;R110A))
T3 sequence: T1 sequence with N53A, S55A, R110A

B1: E4 RNA-DNA heteroduplex 2 (DNA:RNA)
DNA: GTGGCGGGGTGGCG
?: CGCCACCCCGCCAC
B2: E3 RNA-DNA heteroduplex 1 (DNA:RNA)
DNA: GGGTGGCG
?: CGCCACCC
B3: E1 ssRNA 1 (ssRNA)
RNA: CGCCACCC
B4: E5 ssRNA 2 (ssRNA)
RNA: CGCCACCCCGCCAC
B5: FAM-E4 heteroduplex (DNA:RNA)
DNA: GTGGCGGGGTGGCG
?: CGCCACCCCGCCAC
B6: E9 RNA-DNA half-fork (DNA:RNA)
DNA: GGGTGGC
RNA: GCCACCCUUCGUCA
B7: FAM-E8 fork (DNA:RNA)
DNA: CTGTTTCGGGTGGC
RNA: GCCACCCUUCGUCA
B8: FAM-ssDNA E2 (ssDNA)
DNA: GTGGCGGGGTGGCG

Columns and labels:
hpTEN [1] = biological target: T1, hpTEN; assay: NMR titration
hpTEN [2] = biological target: T1, hpTEN; assay: MST
[3] = biological target: T2, hpTEN N53A/S55A/R110A/E119A; assay: MST
hpTEN N53A/S55A/R110A = biological target: T3, hpTEN N53A/S55A/R110A; assay: MST

Row | Binder | Kd (hpTEN [1]) | Kd (hpTEN [2]) | other results
1 | B1 | 900 ± 200 µM | – | –
2 | B2 | 1400 ± 300 µM | – | –
3 | B3 | 5000 ± 2500 µM | – | –
4 | B4 | 5000 ± 3000 µM | – | –
5 | B5 | – | 900 ± 200 µM | –
6 | B6 | 4000 ± 2000 µM | – | –
7 | B7 | – | 400 ± 200 µM | Kd [3]: ~300 µM; Kd (hpTEN N53A/S55A/R110A): ~300 µM
8 | B8 | – | 1000 ± 200 µM | –
